In patent US6054163 one finds residual bacteriocin activity after enzyme treatment (% of original activity; bioassay with Listeria monocytogenes 4A) data, which are given here for ten substances.

The target in this experiment is piscicolin 126 (Carnobacterium piscicola JG126).

For Catalase (enzyme), the residual bacteriocin activity after enzyme treatment (% of original activity; bioassay with Listeria monocytogenes 4A) amounted to 100%.
Lipase (enzyme) showed a residual bacteriocin activity after enzyme treatment (% of original activity; bioassay with Listeria monocytogenes 4A) of 100%.
As for Lysozyme (enzyme), the figure is 100%.
As for Pepsin (enzyme), the figure is 100%; as for Protease I (enzyme), 0%; as for Protease XIV (enzyme), 3%.
As for Protease XXIII (enzyme), the figure is 0%; as for Trypsin (enzyme), 6%; as for α-Chymotrypsin (enzyme), 0%.
On to β-Chymotrypsin (enzyme), for which the residual bacteriocin activity after enzyme treatment (% of original activity; bioassay with Listeria monocytogenes 4A) was 0%.
